According to US20230025280A1, “PH RESPONSIVE COMPOSITIONS, FORMULATIONS, AND METHODS OF IMAGING A TUMOR” (ONCONANO MEDICINE, INC, priority 2019, published 2023):
Where “and” joins values, the source holds several entries; their conditions need not be identical. Equal values may be shown once. Marks after values point to notes of the source that are not given here.

Assay: Phase 1 (1a/1b) pharmacokinetics: plasma concentrations after single IV dose (validated direct fluorescence reader assay), noncompartmental analysis
Type: in vivo, human
Description: Phase 1 is a single-Principal Investigator, non-randomized, open-label, single-arm, cross-sectional study to evaluate the safety, PK profile, and imaging feasibility of Compound 1 in patients with solid cancers who require surgical excision. The main purpose of this study was to investigate the safety, PK, and feasibility of Compound 1 as an intra-operative optical imaging agent to detect tumors and metastatic lymph nodes in solid cancers. The study was intended to investigate the optimal dose range of Compound 1 for an adequate TBR and CNR of fluorescence obtained intraoperatively at 24 (±8) hours post dosing and with ex vivo specimens using ICG compatible cameras and imaging devices.
Phase 1 enrolled 30 patients with solid cancers (HNSCC, breast cancer, esophageal cancer, or colorectal cancer) who have a biopsy-confirmed diagnosis of respective tumor types and are scheduled to undergo surgical resection of the tumor. The study design included a standard 3+3 design for the dose-escalation portion (Phase 1a; N=18 maximum) followed by a dose-expansion portion (Phase 1b; N=15). All patients received a single I.V. dose of Compound 1, followed by routine surgery approximately 24 hours after infusion of Compound 1.
Phase 1a was a dose-finding study performed in 5 cohorts of 3 patients each. The dose levels evaluated were […], and 1.2 mg/kg, in this sequence. Inter-cohort dose escalation took place after the last patient in the previous cohort completed the Day 10 safety assessment. Safety, PK, and imaging feasibility were evaluated in both the Phase 1a and 1b portions of the study. Patient safety is assessed during the study and for up to 10 days post-dose.
Study design: Single Compound 1 IV dose was administered as a 1-5 minute IV infusion to patients in five cohorts (0.1, 0.3, 0.5, 0.8, and 1.2 mg/kg) with three patients per cohort in Phase 1a and 15 patients at a dose of 1.2 mg/kg in Phase 1b. Patient demographic information including tumor types is presented in Table 4 and 5 for Phase 1a and Table 5 for Phase 1b. Intertek Pharmaceutical Services (San Diego, Calif.) determined Compound 1 plasma concentrations using a validated direct fluorescence reader assay. Pacific BioDevelopment (Davis, Calif.) performed the PK analysis.
Sample collection: Blood samples were collected prior to infusion and at 10 minutes and 0.5, 1, 3, 8, 24, 48, 72, and 240 hours after infusion.
Analysis: Plasma concentration versus time profiles were generated for each patient. Pharmacokinetic parameters were estimated using Phoenix WinNonlin (version 8.0). According to SOP, concentrations reported as BQL were set to 0 except for the 0.5 h sample for subject #ON1102, which was set to LLOQ/2 ([…] value used in parameter calculations) and the 24 and 48 h samples.
If the coefficient of determination for the terminal slope estimation was less than 0.8, T1/2 was not reported (NR). AUC extrapolated to infinity is not reported for any data set because in all cases the % extrapolated AUC was greater than 20% and thus the AUCinf estimate would not be reliable. The concentration at 10 minutes, the first time point measured (C10m), was also reported for each patient.
The area under the plasma concentration versus time curves from dosing to the last time point with a measurable concentration (AUClast) was estimated by the linear trapezoid method. The last three or more time points were used to estimate the elimination rate constant (λz) which was used to estimate the terminal-phase half-life (T1/2) and AUC from zero to infinity (AUCINF) from the following equations: […]

[1] = 1.2 mg/kg, HNSCC, individual subjects
[2] = Phase 1a, 0.3 mg/kg single IV, individual subject
[3] = Phase 1a, 0.3 mg/kg single IV, mean
[4] = Phase 1a, 0.3 mg/kg single IV, median
[5] = Phase 1a, 0.5 mg/kg single IV, individual subject

PEO90-140-b-P(DBA60-150-r-ICG0-3-r-AMA0-3) [Compound 1]
Cmax (1.2 mg/kg, HNSCC, Mean, N 7): 33.6 µg/mL | Tmax (1.2 mg/kg, HNSCC, Mean, N 7): 1.14 h | T1/2 (1.2 mg/kg, HNSCC, Median, N 5): 42.6 h | AUC0-24 hr (1.2 mg/kg, HNSCC, Median, N 7): 565 µg·h/mL | AUCall (1.2 mg/kg, HNSCC, Median, N 7): 1160 µg·h/mL | AUClast (1.2 mg/kg, HNSCC, Median, N 7): 970 µg·h/mL | C10 m (1.2 mg/kg, HNSCC, Median, N 7): 30.3 µg/mL | Cmax (1.2 mg/kg, HNSCC, Median, N 7): 32.4 µg/mL | Tmax (1.2 mg/kg, HNSCC, Median, N 7): 0.500 h | AUC0-24 hr [1]: 348 µg·h/mL and 563 µg·h/mL and 565 µg·h/mL and 520 µg·h/mL and 625 µg·h/mL and 730 µg·h/mL and 740 µg·h/mL | AUCall [1]: 348 µg·h/mL and 1160 µg·h/mL and 1100 µg·h/mL and 747 µg·h/mL and 2690 µg·h/mL and 2550 µg·h/mL and 2740 µg·h/mL | AUClast [1]: 184 µg·h/mL and 970 µg·h/mL and 957 µg·h/mL and 520 µg·h/mL and 1430 µg·h/mL and 1480 µg·h/mL and 1580 µg·h/mL | C10 m [1]: 28.0 µg/mL and 34.1 µg/mL and 28.5 µg/mL and 27.5 µg/mL and 30.3 µg/mL and 47.6 µg/mL and 31.3 µg/mL | Cmax [1]: 28.0 µg/mL and 34.1 µg/mL and 29.9 µg/mL and 29.2 µg/mL and 32.4 µg/mL and 47.6 µg/mL and 34.3 µg/mL | T1/2 [1]: 32.5 h and 46.5 h and 42.6 h and 38.4 h and 46.8 h | Tmax [1]: 0.170 h and 1.00 h and 0.500 h and 3.00 h | AUC0-24h in relation to dose (Phase 1a and 1b, up to 1.2 mg/kg): appears to be dose proportional | Exposure in relation to dose (Phase 1a and Phase 1b combined): dose proportional | Measurability in subject plasma samples (Phase 1a, 0.1 mg/kg): not measurable | C10 m (Phase 1a, 0.1 mg/kg single IV, individual subject): 0.00 µg/mL | C10 m (Phase 1a, 0.1 mg/kg single IV, mean): 0.00 µg/mL | C10 m (Phase 1a, 0.1 mg/kg single IV, median): 0.00 µg/mL | Plasma Conc (Phase 1a, 0.100 mg/kg, 0.170 hr, individual subject): BQL (BQL (<10 μg/mL), set = 0 for PK analysis) | Plasma Conc (Phase 1a, 0.100 mg/kg, 0.170 hr, mean): 0.00 µg/mL | Plasma Conc (Phase 1a, 0.100 mg/kg, 0.500 hr, individual subject): BQL (BQL (<10 μg/mL), set = 0 for PK analysis) | Plasma Conc (Phase 1a, 0.100 mg/kg, 0.500 hr, mean): 0.00 µg/mL | Plasma Conc (Phase 1a, 0.100 mg/kg, 1.00 hr, individual subject): BQL (BQL (<10 μg/mL), set = 0 for PK analysis) | Plasma Conc (Phase 1a, 0.100 mg/kg, 1.00 hr, mean): 0.00 µg/mL | Plasma Conc (Phase 1a, 0.100 mg/kg, 3.00 hr, individual subject): BQL (BQL (<10 μg/mL), set = 0 for PK analysis) | Plasma Conc (Phase 1a, 0.100 mg/kg, 3.00 hr, mean): 0.00 µg/mL | Plasma Conc (Phase 1a, 0.100 mg/kg, 8.00 hr, individual subject): BQL (BQL (<10 μg/mL), set = 0 for PK analysis) | Plasma Conc (Phase 1a, 0.100 mg/kg, 8.00 hr, mean): 0.00 µg/mL | Plasma Conc (Phase 1a, 0.100 mg/kg, 24.0 hr, individual subject): BQL (BQL (<10 μg/mL), set = 0 for PK analysis) | Plasma Conc (Phase 1a, 0.100 mg/kg, 24.0 hr, mean): 0.00 µg/mL | Plasma Conc (Phase 1a, 0.100 mg/kg, 48.0 hr, individual subject): BQL (BQL (<10 μg/mL), set = 0 for PK analysis) | Plasma Conc (Phase 1a, 0.100 mg/kg, 48.0 hr, mean): 0.00 µg/mL | Plasma Conc (Phase 1a, 0.100 mg/kg, 72.0 hr, individual subject): BQL (BQL (<10 μg/mL), set = 0 for PK analysis) | Plasma Conc (Phase 1a, 0.100 mg/kg, 72.0 hr, mean): 0.00 µg/mL | Plasma Conc (Phase 1a, 0.100 mg/kg, 240 hr, individual subject): BQL (BQL (<10 μg/mL), set = 0 for PK analysis) | Plasma Conc (Phase 1a, 0.100 mg/kg, 240 hr, mean): 0.00 µg/mL | Mean AUC0-24h (Phase 1a, 0.3 mg/kg): 197 µg·h/mL | Mean C10 (Phase 1a, 0.3 mg/kg): 12 µg/mL | AUC0-24 hr [2]: 292 µg·h/mL and 4.68 µg·h/mL and 296 µg·h/mL | AUCall [2]: 437 hr*μg/mL and 4.68 hr*μg/mL and 2040^1 hr*μg/mL | AUClast [2]: 292 µg·h/mL and 3.43 µg·h/mL and 902 µg·h/mL | C10 m [2]: 10.7 µg/mL and 10.4 µg/mL and 14.8 µg/mL | Cmax [2]: 12.5 µg/mL and 10.4 µg/mL and 16.5 µg/mL | Tmax [2]: 8.00 h and 0.170 h and 3.00 h | AUC0-24 hr [3]: 197 µg·h/mL | AUCall [3]: 826 µg·h/mL | AUClast [3]: 399 µg·h/mL | C10 m [3]: 12.0 µg/mL | Cmax [3]: 13.1 µg/mL | Tmax [3]: 3.72 h | AUC0-24 hr [4]: 292 µg·h/mL | AUCall [4]: 437 µg·h/mL | AUClast [4]: 292 µg·h/mL | C10 m [4]: 10.7 µg/mL | Cmax [4]: 12.5 µg/mL | Tmax [4]: 3.00 h | Plasma Conc (Phase 1a, 0.300 mg/kg, 0.170 hr, individual subject): 10.7 µg/mL and 10.4 µg/mL and 14.8 µg/mL | Plasma Conc (Phase 1a, 0.300 mg/kg, 0.170 hr, mean): 12.0 µg/mL | Plasma Conc (Phase 1a, 0.300 mg/kg, 0.500 hr, individual subject): 5.00^b μg/mL and 15.1 μg/mL | Plasma Conc (Phase 1a, 0.300 mg/kg, 0.500 hr, mean): 10.1 µg/mL | Plasma Conc (Phase 1a, 0.300 mg/kg, 1.00 hr, individual subject): 11.4 μg/mL and BQL (BQL (<10 μg/mL), set = 0 for PK analysis) and 12.9 μg/mL | Plasma Conc (Phase 1a, 0.300 mg/kg, 1.00 hr, mean): 8.10 µg/mL | Plasma Conc (Phase 1a, 0.300 mg/kg, 3.00 hr, individual subject): 12.0 μg/mL and BQL (BQL (<10 μg/mL), set = 0 for PK analysis) and 16.5 μg/mL | Plasma Conc (Phase 1a, 0.300 mg/kg, 3.00 hr, mean): 9.50 µg/mL | Plasma Conc (Phase 1a, 0.300 mg/kg, 8.00 hr, individual subject): 12.5 μg/mL and BQL (BQL (<10 μg/mL), set = 0 for PK analysis) and 11.2 μg/mL | Plasma Conc (Phase 1a, 0.300 mg/kg, 8.00 hr, mean): 7.90 µg/mL | Plasma Conc (Phase 1a, 0.300 mg/kg, 24.0 hr, individual subject): 12.1 μg/mL and BQL (BQL (<10 μg/mL), set = 0 for PK analysis) (2×) | Plasma Conc (Phase 1a, 0.300 mg/kg, 24.0 hr, mean): 6.05 µg/mL | Plasma Conc (Phase 1a, 0.300 mg/kg, 48.0 hr, individual subject): BQL (BQL (<10 μg/mL), set = 0 for PK analysis) | Plasma Conc (Phase 1a, 0.300 mg/kg, 48.0 hr, mean): 0.00 µg/mL | Plasma Conc (Phase 1a, 0.300 mg/kg, 72.0 hr, individual subject): BQL (BQL (<10 μg/mL), set = 0 for PK analysis) (2×) and 13.5 μg/mL | Plasma Conc (Phase 1a, 0.300 mg/kg, 72.0 hr, mean): 4.50 µg/mL | Plasma Conc (Phase 1a, 0.300 mg/kg, 240 hr, individual subject): BQL (BQL (<10 μg/mL), set = 0 for PK analysis) | Plasma Conc (Phase 1a, 0.300 mg/kg, 240 hr, mean): 0.00 µg/mL | Mean AUC0-24h (Phase 1a, 0.5 mg/kg): 289 µg·h/mL | Mean C10 (Phase 1a, 0.5 mg/kg): 17.3 µg/mL | AUC0-24 hr [5]: 314 µg·h/mL and 340 µg·h/mL and 213 µg·h/mL | AUCall [5]: 314 µg·h/mL and 1980 µg·h/mL and 213 µg·h/mL | AUClast [5]: 160 µg·h/mL and 969 µg·h/mL and 101 µg·h/mL | C10 m [5]: 22.0 µg/mL and 16.2 µg/mL and 13.6 µg/mL
